The series relates to dsDNase (shrimp double strand-specific DNase). The series is described as follows: cleavage_in_vitro. To be noted: DNA strand of hybrid cleaved, RNA strand almost not; First-Strand buffer, 37 C.

Regarding “CGCCATCGGAGGTTC / GAACCUCCGAUGGCG [RNA-DNA hybrid dual probe]”, the relative cleavage activity (fraction of dsDNA activity) amounted to 0.5.

The values are drawn from patent US20200048693.
